Measurements reported in US20210238268A1 (ATARGA, published 2021).

Biological target: T1, human Complement component 5 (C5) (human, UniProt P01031 19-1676, limits assumed)
T1 construct: also called human C5
Assay: ELISA, binding to human C5 at pH 7.4 (C5 ELISA, absorbance at 450 nm)
Procedure: The exemplary antibodies were tested for binding to human C5 at pH 7.4 using ELISA.

T1 sequence (P01031 19-1676 limits assumed): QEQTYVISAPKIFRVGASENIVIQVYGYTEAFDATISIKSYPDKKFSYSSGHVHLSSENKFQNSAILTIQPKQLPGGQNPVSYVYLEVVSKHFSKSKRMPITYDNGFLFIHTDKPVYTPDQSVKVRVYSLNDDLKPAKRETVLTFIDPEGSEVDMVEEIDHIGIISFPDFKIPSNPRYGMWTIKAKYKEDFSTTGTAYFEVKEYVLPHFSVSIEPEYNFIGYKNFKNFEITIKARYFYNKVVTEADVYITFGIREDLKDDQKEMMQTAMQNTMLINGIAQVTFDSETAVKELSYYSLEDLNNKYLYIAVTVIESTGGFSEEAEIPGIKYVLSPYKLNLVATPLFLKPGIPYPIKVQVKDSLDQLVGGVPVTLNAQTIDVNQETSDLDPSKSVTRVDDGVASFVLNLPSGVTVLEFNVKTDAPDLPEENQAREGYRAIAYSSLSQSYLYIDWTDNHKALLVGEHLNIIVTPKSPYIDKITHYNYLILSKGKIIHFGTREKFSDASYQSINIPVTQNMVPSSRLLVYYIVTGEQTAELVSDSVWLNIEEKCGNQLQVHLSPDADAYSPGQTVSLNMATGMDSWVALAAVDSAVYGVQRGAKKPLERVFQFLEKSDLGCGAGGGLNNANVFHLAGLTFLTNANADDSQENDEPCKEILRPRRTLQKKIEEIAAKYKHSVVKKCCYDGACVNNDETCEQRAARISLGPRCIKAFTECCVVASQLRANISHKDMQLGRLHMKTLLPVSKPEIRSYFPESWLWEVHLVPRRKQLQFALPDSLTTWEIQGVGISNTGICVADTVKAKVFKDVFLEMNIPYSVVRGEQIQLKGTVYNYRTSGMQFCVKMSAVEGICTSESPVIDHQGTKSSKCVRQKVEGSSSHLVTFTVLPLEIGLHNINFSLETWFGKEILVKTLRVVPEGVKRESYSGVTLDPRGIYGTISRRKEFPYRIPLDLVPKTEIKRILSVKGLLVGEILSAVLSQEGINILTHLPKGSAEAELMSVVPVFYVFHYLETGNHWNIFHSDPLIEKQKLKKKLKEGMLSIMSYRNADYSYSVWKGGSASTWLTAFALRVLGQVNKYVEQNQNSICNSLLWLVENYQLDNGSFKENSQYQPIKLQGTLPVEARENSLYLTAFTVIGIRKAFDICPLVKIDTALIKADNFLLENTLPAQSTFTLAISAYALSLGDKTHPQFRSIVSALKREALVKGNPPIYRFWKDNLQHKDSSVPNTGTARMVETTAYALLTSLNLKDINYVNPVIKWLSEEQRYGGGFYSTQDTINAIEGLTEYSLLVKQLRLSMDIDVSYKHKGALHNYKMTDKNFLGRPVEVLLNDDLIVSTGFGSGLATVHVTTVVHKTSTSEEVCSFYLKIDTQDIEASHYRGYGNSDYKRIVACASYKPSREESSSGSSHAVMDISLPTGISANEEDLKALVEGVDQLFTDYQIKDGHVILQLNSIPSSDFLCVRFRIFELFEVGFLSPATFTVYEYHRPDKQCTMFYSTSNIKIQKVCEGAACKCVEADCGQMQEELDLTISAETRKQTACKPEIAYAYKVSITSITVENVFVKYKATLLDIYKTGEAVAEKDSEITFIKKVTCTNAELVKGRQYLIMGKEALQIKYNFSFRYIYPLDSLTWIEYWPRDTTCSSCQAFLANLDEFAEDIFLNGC

EC50 [µg/mL]	EC50 (read off the curve) [µg/mL]	Binder
0.034	~0.03	ATG-006 (antibody, V domains shown, Expressed in Expi CHO cells; also called anti-C5 monoclonal antibody ATG-006) VH: QVQLVQSGAEVKKPGASVKVSCKASGYIFTDFYMQWVRQAPGQGLEWMGEILPGTGSTEYAQKFQGRVTMTRDTSISTVYMEVRRLRSDDTAVYYCARYFFGSTPNWYFDVWGQGTLVTVSS VL: EIVMTQSPSSLSASVGDRVTITCGATENIYGALNWYQHEPGKAPKLLIYGASNRYTGVTSRFSGSGSGTDFTLTISTLQPEDFATYYCQQVLNTPVSFGGGTKVDIKR
0.52		ATG-012 (antibody, IgG2, Same variable regions as ATG-008; Expressed in Expi CHO cells; also called anti-C5 monoclonal antibody ATG-012) heavy: QVQLVQSGAEVKKPGASVKVSCKASGHIFTDFYMQWVRQAPGQGLEWMGEILPGTGHTEYAQKFQGRVTMTRDTSISTVYMEVRRLRSDDTAVYYCARYFFGSTPNWYFDVWGQGTLVTVSSASTKGPSVFPLAPCSRSTSESTAALGCLVKDYFPEPVTVSWNSGALTSGVHTFPAVLQSSGLYSLSSVVTVPSSNFGTQTYTCNVDHKPSNTKVDKTVERKCCVECPPCPAPPVAGPSVFLFPPKPKDTLYITREPEVTCVVVDVSQEDPEVQFNWYVDGVEVHNAKTKPREEQFNSTYRVVSVLTVLHQDWLNGKEYKCKVSNKGLPSSIEKTISKAKGQPREPQVYTLPPSQEEMTKNQVSLTCLVKGFYPSDIAVEWESNGQPENNYKTTPPVLDSDGSFFLYSRLTVDKSRWQEGNVFSCSVMHEALHNHYTQKSLSLSLGK light: EIVMTQSPSSLSASVGDRVTITCGATENIYGALNWYQHEPGKAPKLLIYGASNRYTGVTSRFSGSGSGTDFTLTISTLQPEDFATYYCQQVLNTPVSFGGGTKVDIKRTVAAPSVFIFPPSDEQLKSGTASVVCLLNNFYPREAKVQWKVDNALQSGNSQESVTEQDSKDSTYSLSSTLTLSKADYEKHKVYACEVTHQGLSSPVTKSFNRGEC

The remaining lines, values behind:

Binder	EC50 [µg/mL]	EC50 (read off the curve) [µg/mL]
ATG-001 (antibody, V domains shown, Expressed in Expi CHO cells; also called anti-C5 monoclonal antibody ATG-001) VH: QVQLVQSGAEVKKPGASVKVSCKASGYIFTNYWMQWVRQAPGQGLEWMGEILPGTGSTEYAQKFQGRVTMTRDTSISTVYMEVRRLRSDDTAVYYCARYFFGSTPNWYFDVWGQGTLVTVSS VL: EIVMTQSPSSLSASVGDRVTITCGATENIYGALNWYQHEPGKAPKLLIYGASNLADGVTSRFSGSGSGTDFTLTISTLQPEDFATYYCQNVLNTPLSFGGGTKVDIKR	0.099	
ATG-005 (antibody, V domains shown, Expressed in Expi CHO cells; also called anti-C5 monoclonal antibody ATG-005) VH: QVQLVQSGAEVKKPGASVKVSCKASGYIFTNYWMQWVRQAPGQGLEWMGEILPGTGSTEYAQKFQGRVTMTRDTSISTVYMEVRRLRSDDTAVYYCARYFFGSTPNWYFDVWGQGTLVTVSS VL: EIVMTQSPSSLSASVGDRVTITCGATENIYGALNWYQHEPGKAPKLLIYGASNRYTGVTSRFSGSGSGTDFTLTISTLQPEDFATYYCQQVLNTPVSFGGGTKVDIKR	0.041	~0.04
ATG-008 (antibody, IgG2, Expressed in Expi CHO cells; also called anti-C5 monoclonal antibody ATG-008) heavy: QVQLVQSGAEVKKPGASVKVSCKASGHIFTDFYMQWVRQAPGQGLEWMGEILPGTGHTEYAQKFQGRVTMTRDTSISTVYMEVRRLRSDDTAVYYCARYFFGSTPNWYFDVWGQGTLVTVSSASTKGPSVFPLAPCSRSTSESTAALGCLVKDYFPEPVTVSWNSGALTSGVHTFPAVLQSSGLYSLSSVVTVPSSNFGTQTYTCNVDHKPSNTKVDKTVERKCCVECPPCPAPPVAGPSVFLFPPKPKDTLMISRTPEVTCVVVDVSQEDPEVQFNWYVDGVEVHNAKTKPREEQFNSTYRVVSVLTVLHQDWLNGKEYKCKVSNKGLPSSIEKTISKAKGQPREPQVYTLPPSQEEMTKNQVSLTCLVKGFYPSDIAVEWESNGQPENNYKTTPPVLDSDGSFFLYSRLTVDKSRWQEGNVFSCSVLHEALHSHYTQKSLSLSLGK light: EIVMTQSPSSLSASVGDRVTITCGATENIYGALNWYQHEPGKAPKLLIYGASNRYTGVTSRFSGSGSGTDFTLTISTLQPEDFATYYCQQVLNTPVSFGGGTKVDIKRTVAAPSVFIFPPSDEQLKSGTASVVCLLNNFYPREAKVQWKVDNALQSGNSQESVTEQDSKDSTYSLSSTLTLSKADYEKHKVYACEVTHQGLSSPVTKSFNRGEC	0.09	
